Measured values taken from patent US9176064B2, “Bisubstrate fluorescent probes for protein kinase CK2” (University of Tartu, priority 2012, dated 2015).
Where a SMILES comes first, the peptide text is derived from it. [ ]: non-standard residue; d: D form. The star is where a group is joined. X1 = O=C(CCCCCCCn1cnc2c(Br)c(Br)c(Br)c(Br)c21)*

Key:
Experiment in all cases: Kinase panel residual activity
Format in all cases: biochemical
Settings in all cases: compound at 1 micromolar
PLK1 = PLK1 (Homo sapiens, UniProt P53350)
GCK = target: T1, GCK (Homo sapiens, UniProt Q12851)
T1 sequence (Q12851 1-820): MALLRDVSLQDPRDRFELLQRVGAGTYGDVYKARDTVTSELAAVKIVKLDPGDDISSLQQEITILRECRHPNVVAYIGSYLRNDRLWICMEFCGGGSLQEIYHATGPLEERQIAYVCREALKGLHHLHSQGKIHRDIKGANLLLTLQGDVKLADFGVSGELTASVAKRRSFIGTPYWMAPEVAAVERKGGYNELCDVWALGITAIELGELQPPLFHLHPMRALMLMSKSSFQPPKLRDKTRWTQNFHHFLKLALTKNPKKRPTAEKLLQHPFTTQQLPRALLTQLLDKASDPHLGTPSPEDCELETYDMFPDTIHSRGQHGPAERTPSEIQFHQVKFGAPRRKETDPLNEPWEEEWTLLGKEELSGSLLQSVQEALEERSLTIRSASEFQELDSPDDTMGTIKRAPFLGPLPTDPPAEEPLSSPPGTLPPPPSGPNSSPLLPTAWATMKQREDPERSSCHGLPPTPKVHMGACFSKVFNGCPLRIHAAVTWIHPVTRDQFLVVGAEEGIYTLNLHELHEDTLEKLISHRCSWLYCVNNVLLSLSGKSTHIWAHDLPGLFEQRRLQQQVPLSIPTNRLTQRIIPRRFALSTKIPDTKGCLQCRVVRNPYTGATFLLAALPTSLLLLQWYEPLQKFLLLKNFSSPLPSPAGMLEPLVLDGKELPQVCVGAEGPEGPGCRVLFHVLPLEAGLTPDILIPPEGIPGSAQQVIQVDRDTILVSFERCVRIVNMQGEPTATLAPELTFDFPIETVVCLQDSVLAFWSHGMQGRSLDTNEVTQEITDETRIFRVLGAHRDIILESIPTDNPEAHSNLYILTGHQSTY

PAK4 = PAK4 (Homo sapiens, UniProt O96013)
IKKe = target: T2, IKKe (Homo sapiens, UniProt Q14164)
T2 sequence (Q14164 1-716): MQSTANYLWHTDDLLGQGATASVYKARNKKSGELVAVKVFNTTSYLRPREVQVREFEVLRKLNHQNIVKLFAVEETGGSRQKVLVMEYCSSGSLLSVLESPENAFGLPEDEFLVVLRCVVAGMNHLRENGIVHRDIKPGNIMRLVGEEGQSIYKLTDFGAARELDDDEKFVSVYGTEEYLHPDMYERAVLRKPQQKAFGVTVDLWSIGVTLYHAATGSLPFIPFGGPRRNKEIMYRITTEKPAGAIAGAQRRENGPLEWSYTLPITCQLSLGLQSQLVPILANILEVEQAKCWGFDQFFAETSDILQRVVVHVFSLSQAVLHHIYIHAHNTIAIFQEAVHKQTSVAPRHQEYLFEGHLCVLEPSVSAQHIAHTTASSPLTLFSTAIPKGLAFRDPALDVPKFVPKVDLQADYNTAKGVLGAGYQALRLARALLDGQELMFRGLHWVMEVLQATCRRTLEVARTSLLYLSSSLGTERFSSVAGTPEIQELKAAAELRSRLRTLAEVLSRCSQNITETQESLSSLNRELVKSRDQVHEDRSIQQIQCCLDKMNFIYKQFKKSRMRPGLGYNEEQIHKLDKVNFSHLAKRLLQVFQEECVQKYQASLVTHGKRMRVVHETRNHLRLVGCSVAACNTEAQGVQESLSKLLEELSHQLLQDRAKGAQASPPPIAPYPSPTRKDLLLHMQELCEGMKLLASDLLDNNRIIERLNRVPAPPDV

BTK = BTK (Homo sapiens, UniProt Q06187)
MAP4K3 = target: T3, MAP4K3 (Homo sapiens, UniProt Q8IVH8)
T3 sequence (Q8IVH8 1-894): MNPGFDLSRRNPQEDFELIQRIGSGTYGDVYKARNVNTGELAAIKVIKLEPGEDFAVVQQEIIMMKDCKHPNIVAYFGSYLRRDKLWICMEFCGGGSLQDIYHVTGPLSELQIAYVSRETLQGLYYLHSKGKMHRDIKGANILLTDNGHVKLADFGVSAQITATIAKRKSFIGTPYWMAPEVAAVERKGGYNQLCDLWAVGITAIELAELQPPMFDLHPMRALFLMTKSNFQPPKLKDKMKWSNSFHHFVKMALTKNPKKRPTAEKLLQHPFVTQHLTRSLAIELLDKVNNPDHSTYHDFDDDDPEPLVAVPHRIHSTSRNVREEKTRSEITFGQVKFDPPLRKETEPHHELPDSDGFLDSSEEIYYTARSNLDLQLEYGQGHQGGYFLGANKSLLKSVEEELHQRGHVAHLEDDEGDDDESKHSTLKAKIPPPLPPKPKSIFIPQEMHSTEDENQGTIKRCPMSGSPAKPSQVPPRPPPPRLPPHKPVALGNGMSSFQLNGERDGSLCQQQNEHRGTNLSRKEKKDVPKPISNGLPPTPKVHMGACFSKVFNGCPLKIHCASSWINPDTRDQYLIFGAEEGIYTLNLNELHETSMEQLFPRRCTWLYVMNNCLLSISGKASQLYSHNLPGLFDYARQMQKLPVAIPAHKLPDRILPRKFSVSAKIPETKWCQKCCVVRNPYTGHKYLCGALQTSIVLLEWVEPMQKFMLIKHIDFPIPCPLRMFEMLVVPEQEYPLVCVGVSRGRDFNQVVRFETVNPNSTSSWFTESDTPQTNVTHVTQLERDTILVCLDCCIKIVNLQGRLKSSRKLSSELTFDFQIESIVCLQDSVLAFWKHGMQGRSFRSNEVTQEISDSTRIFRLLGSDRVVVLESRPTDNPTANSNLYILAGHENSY

MAPKAP-K3 = MAPKAP-K3 (Homo sapiens, UniProt Q16644)
Sequence of MAPKAP-K3 (Q16644 whole entry, species assumed): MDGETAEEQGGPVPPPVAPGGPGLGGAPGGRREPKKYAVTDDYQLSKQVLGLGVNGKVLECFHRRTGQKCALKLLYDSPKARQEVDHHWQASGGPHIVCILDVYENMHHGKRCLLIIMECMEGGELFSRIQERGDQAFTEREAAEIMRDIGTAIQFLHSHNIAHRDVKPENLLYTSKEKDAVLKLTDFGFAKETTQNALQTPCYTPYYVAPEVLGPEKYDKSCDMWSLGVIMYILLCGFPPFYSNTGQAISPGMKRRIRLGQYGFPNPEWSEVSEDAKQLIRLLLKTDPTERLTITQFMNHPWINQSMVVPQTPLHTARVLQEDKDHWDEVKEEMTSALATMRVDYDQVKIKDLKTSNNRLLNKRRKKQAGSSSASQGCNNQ

Sequence of PAK4 (O96013 whole entry, species assumed): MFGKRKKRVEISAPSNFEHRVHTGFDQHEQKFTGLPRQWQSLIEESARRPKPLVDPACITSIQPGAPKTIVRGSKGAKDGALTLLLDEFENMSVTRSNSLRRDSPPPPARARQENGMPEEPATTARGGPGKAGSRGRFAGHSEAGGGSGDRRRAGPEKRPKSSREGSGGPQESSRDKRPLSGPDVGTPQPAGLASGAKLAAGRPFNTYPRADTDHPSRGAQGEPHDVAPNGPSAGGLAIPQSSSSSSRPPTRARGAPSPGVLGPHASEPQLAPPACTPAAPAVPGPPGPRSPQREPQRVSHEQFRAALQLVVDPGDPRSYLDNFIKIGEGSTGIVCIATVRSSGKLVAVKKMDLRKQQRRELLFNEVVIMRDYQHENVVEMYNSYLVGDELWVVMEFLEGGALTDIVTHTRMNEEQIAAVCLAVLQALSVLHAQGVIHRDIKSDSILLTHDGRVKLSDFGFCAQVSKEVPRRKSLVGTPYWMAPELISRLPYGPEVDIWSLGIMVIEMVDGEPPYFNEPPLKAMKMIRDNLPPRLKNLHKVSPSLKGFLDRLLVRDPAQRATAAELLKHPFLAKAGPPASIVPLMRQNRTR
Sequence of PLK1 (P53350 whole entry, species assumed): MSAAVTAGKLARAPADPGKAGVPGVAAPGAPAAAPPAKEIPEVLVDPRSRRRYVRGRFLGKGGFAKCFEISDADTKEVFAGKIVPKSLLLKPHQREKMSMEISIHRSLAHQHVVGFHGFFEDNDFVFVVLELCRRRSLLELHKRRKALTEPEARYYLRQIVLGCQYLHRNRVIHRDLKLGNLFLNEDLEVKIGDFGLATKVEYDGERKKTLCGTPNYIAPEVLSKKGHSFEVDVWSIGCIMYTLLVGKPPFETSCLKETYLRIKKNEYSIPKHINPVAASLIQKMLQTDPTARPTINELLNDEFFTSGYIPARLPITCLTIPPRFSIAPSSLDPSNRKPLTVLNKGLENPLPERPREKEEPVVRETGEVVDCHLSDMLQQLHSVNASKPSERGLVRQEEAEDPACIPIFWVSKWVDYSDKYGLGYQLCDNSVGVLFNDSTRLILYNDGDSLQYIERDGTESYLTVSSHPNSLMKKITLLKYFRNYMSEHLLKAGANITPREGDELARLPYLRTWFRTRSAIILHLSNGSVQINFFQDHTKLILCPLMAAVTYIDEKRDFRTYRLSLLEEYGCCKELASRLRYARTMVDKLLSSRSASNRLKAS
Sequence of BTK (Q06187 whole entry, species assumed): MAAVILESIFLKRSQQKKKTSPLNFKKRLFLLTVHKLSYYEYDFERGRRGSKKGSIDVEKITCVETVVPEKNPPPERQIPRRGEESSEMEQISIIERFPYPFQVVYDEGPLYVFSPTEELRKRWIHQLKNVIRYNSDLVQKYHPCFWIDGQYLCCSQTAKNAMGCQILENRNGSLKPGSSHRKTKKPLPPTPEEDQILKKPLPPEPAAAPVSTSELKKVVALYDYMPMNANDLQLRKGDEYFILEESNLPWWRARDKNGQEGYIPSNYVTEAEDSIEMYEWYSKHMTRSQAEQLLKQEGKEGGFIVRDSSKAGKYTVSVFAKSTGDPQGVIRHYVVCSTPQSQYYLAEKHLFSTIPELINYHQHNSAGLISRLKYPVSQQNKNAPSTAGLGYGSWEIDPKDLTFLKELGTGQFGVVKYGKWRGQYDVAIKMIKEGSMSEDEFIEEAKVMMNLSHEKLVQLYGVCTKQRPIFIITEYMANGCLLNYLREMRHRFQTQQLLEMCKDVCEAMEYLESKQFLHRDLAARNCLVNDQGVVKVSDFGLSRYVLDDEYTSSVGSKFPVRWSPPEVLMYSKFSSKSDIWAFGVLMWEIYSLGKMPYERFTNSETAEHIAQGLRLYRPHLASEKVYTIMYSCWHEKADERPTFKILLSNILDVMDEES

## NCCCC[C@H](NC(=O)[C@H](CC(=O)O)NC(=O)[C@H](CC(=O)O)NC(=O)[C@H](CC(=O)O)NC(=O)[C@H](CC(=O)O)NC(=O)[C@H](CC(=O)O)NC(=O)[C@@H](CC(=O)O)NC(=O)CCCCCCCn1cnc2c(Br)c(Br)c(Br)c(Br)c21)C(=O)O [TBBI-OcA-(D-Asp)-(L-Asp)5-(L-Lys)-OH] (X1-[dD]DDDDDK-OH)
PLK1
  remaining activity at 1 µM: 18%
GCK
  remaining activity at 1 µM: 95%
PAK4
  remaining activity at 1 µM: 71%
IKKe
  remaining activity at 1 µM: 84%
BTK
  remaining activity at 1 µM: 80%
MAP4K3
  remaining activity at 1 µM: 86%
MAPKAP-K3
  remaining activity at 1 µM: 69%
